System: AluI restriction endonuclease
Assay: cleavage_in_vitro
[1] = 8 mM MgCl2, 2 mM CaCl2, 10 mM Tris pH 7.5

Q: Which relative cleavage rate constant (fold kcomp vs (AA)2) (fastest substrate, 8 mM MgCl2, 2 mM CaCl2, 10 mM Tris pH 7.5, 16% glycerol) does the source give for “ATATAGCTATAT (double strand) [(AT)2 12-mer]” here?
A: Its relative cleavage rate constant (fold kcomp vs (AA)2) is 3.02.

Q: For “ATATATATAGCTATATATAT (double strand) [(AT)4 20-mer]”, which binding signal (fold kcomp vs (AA)4) [1] is on record?
A: The binding signal (fold kcomp vs (AA)4) was 3.

Q: Which binding signal (fold kcomp vs (AA)3) [1] does the source give for “ATATATAGCTATATAT (double strand) [(AT)3 16-mer]” here?
A: Its binding signal (fold kcomp vs (AA)3) is 2.95.
